Results as given in PMC10641755, “Structural basis of aggregate binding by the AAA+ disaggregase ClpG” (The Journal of Biological Chemistry, 2023).

Key:
[1] = biological target: Firefly Luciferase, heat-aggregated (Firefly) [luciferase: P08659]
[2] = biological target: ClpG N1 core domain (N1∗), residues 1 to 46 (Pseudomonas aeruginosa, 15N (13C) isotope labelled for NMR); experiment: NMR titration; unlabeled peptide 134 titrated to 15N-labeled N1∗ (80 μM N1∗, up to 240 μM peptide), 1H,15N-HSQC chemical shift perturbations, 298 K, 50 mM NaH2PO4 pH 6.5, 50 mM KCl, 2 mM DTT; conditions: both partners purified

Sequence of Firefly Luciferase, heat-aggregated (Firefly) [luciferase: P08659] (P08659 whole entry, the tested form may be a part): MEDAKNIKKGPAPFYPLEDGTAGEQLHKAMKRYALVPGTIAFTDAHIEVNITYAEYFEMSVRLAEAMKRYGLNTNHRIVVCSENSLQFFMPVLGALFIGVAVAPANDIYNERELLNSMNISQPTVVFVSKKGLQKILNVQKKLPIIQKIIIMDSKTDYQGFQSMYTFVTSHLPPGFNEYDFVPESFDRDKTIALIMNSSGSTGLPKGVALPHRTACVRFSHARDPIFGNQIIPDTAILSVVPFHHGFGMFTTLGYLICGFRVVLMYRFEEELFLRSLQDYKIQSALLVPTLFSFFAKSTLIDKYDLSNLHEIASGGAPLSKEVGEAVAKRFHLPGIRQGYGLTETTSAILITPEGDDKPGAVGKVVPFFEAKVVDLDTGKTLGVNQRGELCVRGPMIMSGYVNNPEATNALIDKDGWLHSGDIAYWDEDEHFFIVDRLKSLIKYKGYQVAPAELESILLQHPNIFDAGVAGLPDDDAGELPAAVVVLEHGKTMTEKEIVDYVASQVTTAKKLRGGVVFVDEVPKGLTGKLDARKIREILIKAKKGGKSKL

Row | Molecule | stimulation of ClpG ATPase activity by aggregated Luciferase [1] | Kd [2]
1 | ClpG WT (P. aeruginosa ClpGGI) (enzyme) | 1.4 fold | 
2 | CWFLRYLKASKVPLN (Unlabeled peptide) [Peptide 134] |  | > 50 µM
